Reference: US11739161B2, “Methods for treating and diagnosing prostate cancer” (Tufts Medical Center, Inc., priority 2017, dated 2023)

System: PC-3 cells
Test: RNASE4 knockdown, colony formation in soft agar
Type: cell-based, human
Settings: PC-3, exogenous RNASE4 1 μg/ml, 14 days
Text: FIGS. 13A-D. RNASE4 knockdown reduces prostate cancer cell proliferation in vitro and colony formation in soft agar. (A) Immunoblot analysis of RNASE4 in PC-3 cells stably transfected with shControl, shRNASE4-1, and shRNASE4-2. (B) qRT-PCR analysis of RNASE4 mRNA normalized to GAPDH in PC-3 cells stably transfected with shControl, shRNASE4-1, and shRNASE4-2. (C) Effect of RNASE4 knockdown on cell proliferation. Cell numbers were counted by a Coulter counter. Exogenous RNASE4, when presented, was at the concentration of 1 μg/ml. Data shown are from representative experiment (in triplicates) of 3 independent repeats. (D) Effects of RNASE4 knockdown on colonies formation and growth of PC-3 cells in soft agar. The same numbers of control and RNASE4 knockdown cells were seeded in soft agar, and grown in the absence or presence of 1 μg/ml of RNASE4 for 14 days. Colonies were counted and size measured on a Nikon Eclipse ti microscope. Left panels, representative images of colonies; scale bars=100 μm. Right panels, quantification of colony numbers and sizes. Data shown are means±SEM from five randomly selected fields per dish from a representative experiment. *P≤0.05, **P≤0.01, and ***P≤0.001, by two-tailed Student's t test.
Lentiviral mediated shRNA system (pGIPZ, Open Biosystems) was used to generate control and RNASE4 knockdown cell lines. […]

B1: RNASE4: recombinant human RNASE4 protein from pET11 expression in E. coli, purified by reversed-phase HPLC; added exogenously (protein, UniProt P34096 29-147, looked up)
Ribonuclease 4: QDGMYQRFLRQHVHPEETGGSDRYCNLMMQRRKMTLYHCKRFNTFIHEDIWNIRSICSTTNIQCKNGKMNCHEGVVKVTDCRDTGSSRAPNCRYRAIASTRRVVIACEGNPQVPVHFDG
In the case of B1, the “rescue of the effect of RNASE4 knockdown on colony formation” value is reported as “able to rescue”.
